Test results from the supplement of paper PMC10567573.

B1: TEKT4 (parent)
chain: LREKLLEAEQSLRNLEDIHMSLEK

Variants of: B1
Assay: protein stability index of a GFP-peptide fusion (GPS, HEK-293T) (PSI 1-6); higher = more stable
Settings: c terminus: a fixed tail appended
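Also: lentivirally expressed fusions sorted by FACS into six bins by GFP to DsRed ratio, PSI derived from sequencing read proportions per bin multiplied by bin number.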

In order of falling protein stability index:
1. LREKLLEAEQSLRNLEDIHMSLCK  4.07
2. LREKLLEAEQSLRNLEDIQMSLEK  3.91
3. LREKLLEAEQSLRNLEDSHMSLEK  3.84
4. LREKLLEAEQSLRNLEDIHMSCEK  3.73
5. LREKLLEAEQSLRNLEDIHMSKEK  3.54
6. LREKLLEAEQSLRNLEDIHGSLEK  3.51
7. LREKLLEAEQSLRNLEDIDMSLEK  3.48
8. LREKLLEAEQSLRNLEDIHMSLAK  3.45
9. LREKLLEAEQSLRNLEDNHMSLEK  3.43
10. LREKLLEAEQSLRNLEDISMSLEK  3.43
11. LREKLLEAEQSLRNLEDTHMSLEK  3.28
12. LREKLLEAEQSLRNLEDIHASLEK  3.28
13. LREKLLEAEQSLRNLEDIPMSLEK  3.26
14. LREKLLEAEQSLRNLEDIHMGLEK  3.25
15. LREKLLEAEQSLRNLEDIHMRLEK  3.24
16. LREKLLEAEQSLRNLEDIHMSNEK  3.22
17. LREKLLEAEQSLRNLEDVHMSLEK  3.21
18. LREKLLEAEQSLRNLEDIHMSREK  3.2
19. LREKLLEAEQSLRNLEDKHMSLEK  3.16
20. LREKLLEAEQSLRNLEDIHYSLEK  3.15
21. LREKLLEAEQSLRNLEDIHMSLRK  3.15
22. LREKLLEAEQSLRNLEDWHMSLEK  3.13
23. LREKLLEAEQSLRNLEDIHMSTEK  3.05
24. LREKLLEAEQSLRNLEDIHCSLEK  3.03
25. LREKLLEAEQSLRNLEDFHMSLEK  3.02
26. LREKLLEAEQSLRNLEDIHMSAEK  3.01
27. LREKLLEAEQSLRNLEDIHTSLEK  2.98
28. LREKLLEAEQSLRNLEDIHMSEEK  2.98
29. LREKLLEAEQSLRNLEDGHMSLEK  2.96
30. LREKLLEAEQSLRNLEDICMSLEK  2.96
31. LREKLLEAEQSLRNLEDINMSLEK  2.93
32. LREKLLEAEQSLRNLEDIEMSLEK  2.91
33. LREKLLEAEQSLRNLEDIHMSHEK  2.89
34. LREKLLEAEQSLRNLEDIHISLEK  2.86
35. LREKLLEAEQSLRNLEDIHMPLEK  2.82
36. LREKLLEAEQSLRNLEDIHMTLEK  2.81
37. LREKLLEAEQSLRNLEDIHMSIEK  2.81
38. LREKLLEAEQSLRNLEDIKMSLEK  2.8
39. LREKLLEAEQSLRNLEDIMMSLEK  2.79
40. LREKLLEAEQSLRNLEDIHMSLKK  2.74
41. LREKLLEAEQSLRNLEDIHDSLEK  2.71
42. LREKLLEAEQSLRNLEDIHMSMEK  2.7
43. LREKLLEAEQSLRNLEDIHMSSEK  2.65
44. LREKLLEAEQSLRNLEDIHMSLLK  2.65
45. LREKLLEAEQSLRNLEDRHMSLEK  2.63
46. LREKLLEAEQSLRNLEDITMSLEK  2.63
47. LREKLLEAEQSLRNLEDIHMFLEK  2.63
48. LREKLLEAEQSLRNLEDQHMSLEK  2.62
49. LREKLLEAEQSLRNLEDIHMNLEK  2.6
50. LREKLLEAEQSLRNLEDIHLSLEK  2.58
51. LREKLLEAEQSLRNLEDIHWSLEK  2.55
52. LREKLLEAEQSLRNLEDIVMSLEK  2.51
53. LREKLLEAEQSLRNLEDIRMSLEK  2.42
54. LREKLLEAEQSLRNLEDIHMSGEK  2.4
55. LREKLLEAEQSLRNLEDIHMSLMK  2.39
56. LREKLLEAEQSLRNLEDIHMWLEK  2.38
57. LREKLLEAEQSLRNLEDIHMKLEK  2.37
58. LREKLLEAEQSLRNLEDIHRSLEK  2.36
59. LREKLLEAEQSLRNLEDIHMELEK  2.35
60. LREKLLEAEQSLRNLEDIHMVLEK  2.35
61. LREKLLEAEQSLRNLEDIHMSQEK  2.33
62. LREKLLEAEQSLRNLEDYHMSLEK  2.3
63. LREKLLEAEQSLRNLEDIHMSLFK  2.3
64. LREKLLEAEQSLRNLEDIHMSLDK  2.27
65. LREKLLEAEQSLRNLEDIHNSLEK  2.25
66. LREKLLEAEQSLRNLEDIHMSLHK  2.21
67. LREKLLEAEQSLRNLEDIHESLEK  2.17
68. LREKLLEAEQSLRNLEDIHMSLSK  2.15
69. LREKLLEAEQSLRNLEDIHMSVEK  2.09
70. LREKLLEAEQSLRNLEDIHMSLEC  2.09
71. LREKLLEAEQSLRNLEDIHMSYEK  2.08
72. LREKLLEAEQSLRNLEDIHKSLEK  2.07
73. LREKLLEAEQSLRNLEDIHMSLVK  2.07
74. LREKLLEAEQSLRNLEDIGMSLEK  2.02
75. LREKLLEAEQSLRNLEDIHMHLEK  1.99
76. LREKLLEAEQSLRNLEDIHMSFEK  1.98
77. LREKLLEAEQSLRNLEDILMSLEK  1.96
78. LREKLLEAEQSLRNLEDMHMSLEK  1.95
79. LREKLLEAEQSLRNLEDIHMSLYK  1.93
80. LREKLLEAEQSLRNLEDIHMQLEK  1.92
81. LREKLLEAEQSLRNLEDIHMDLEK  1.9
82. LREKLLEAEQSLRNLEDIHMSLIK  1.88
83. LREKLLEAEQSLRNLEDIFMSLEK  1.83
84. LREKLLEAEQSLRNLEDIIMSLEK  1.81
85. LREKLLEAEQSLRNLEDIHQSLEK  1.79
86. LREKLLEAEQSLRNLEDIAMSLEK  1.76
87. LREKLLEAEQSLRNLEDIHMMLEK  1.75
88. LREKLLEAEQSLRNLEDIHFSLEK  1.72
89. LREKLLEAEQSLRNLEDIHMSLTK  1.71
90. LREKLLEAEQSLRNLEDIHMLLEK  1.59
91. LREKLLEAEQSLRNLEDIHMSLGK  1.58
92. LREKLLEAEQSLRNLEDIHMCLEK  1.56
93. LREKLLEAEQSLRNLEDIHMSWEK  1.55
94. LREKLLEAEQSLRNLEDIHMSLNK  1.47
